According to US7067474B1, “Agents for treating human illnesses based on β-catenin, and the production and use thereof” (Max-Delbruck-Centrum fur Molekulare Medizin, priority 1998, dated 2006):
“Also recorded” adds a separate entry of the source.

T1: APC (20 amino acid repeats) (Homo sapiens, UniProt P25054)
T1 construct: for the amino acids Ser1259Asp 1400 (APC 20 amino acid repeats); expressed in transfected cells; host or cells: yeast (two-hybrid, Matchmaker, Clontech)
T1 sequence (P25054 1253-1394 limits assumed): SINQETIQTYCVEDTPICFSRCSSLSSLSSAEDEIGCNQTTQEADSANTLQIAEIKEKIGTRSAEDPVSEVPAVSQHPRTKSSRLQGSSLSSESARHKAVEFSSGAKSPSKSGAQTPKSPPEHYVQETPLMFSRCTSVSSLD

T2: APC (15 amino acid repeats) (Homo sapiens, UniProt P25054)
T2 construct: of human APC for the amino acids His1012–Glu1215 (APC 15 amino acid repeats); expressed in transfected cells; host or cells: yeast (two-hybrid, Matchmaker, Clontech)
T2 sequence (P25054 1006-1209 limits assumed): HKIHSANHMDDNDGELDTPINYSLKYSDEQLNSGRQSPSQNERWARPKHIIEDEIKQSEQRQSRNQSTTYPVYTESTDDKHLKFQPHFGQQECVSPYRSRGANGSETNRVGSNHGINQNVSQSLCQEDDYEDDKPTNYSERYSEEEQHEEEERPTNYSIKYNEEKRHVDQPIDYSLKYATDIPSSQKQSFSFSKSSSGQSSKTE


Legend:
Type in all cases: binding
LEF-1 = target: T3, LEF-1 (Mus musculus, UniProt P27782); assay: yeast 2-hybrid: interaction of β-catenin mutants with LEF-1; details: for Interaction With LEF-1, share of wild type β-catenin interaction: yeast 2-hybrid, alanine mutants
T3 construct: the cDNA of LEF-1 for the amino acids 1–99; expressed in transfected cells; host or cells: yeast (two-hybrid, Matchmaker, Clontech)

[1] = target: T1, APC (20 amino acid repeats); assay: yeast 2-hybrid: interaction of β-catenin mutants with APC 20 amino acid repeats; details: for Interaction With APC-20, share of wild type β-catenin interaction: yeast 2-hybrid, alanine mutants
Procedure, shortened: (§1)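 Alanine-substituted human β-catenin mutants (armadillo repeat 3 to C-terminus, from Leu218) fused to Gal4 activation domain; partner fragments fused to LexA: E-cadherin Gln773–Asp884, APC His1012–Glu1215 or Ser1259–Asp1400, conductin Ala342–Arg465. Interaction quantified by β-galactosidase reporter activity in yeast.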

[2] = target: T2, APC (15 amino acid repeats); assay: yeast 2-hybrid: interaction of β-catenin mutants with APC 15 amino acid repeats; details: yeast 2-hybrid, alanine mutants
Procedure, shortened: as §1

conductin = target: T4, conductin (Mus musculus, UniProt O88566); assay: yeast 2-hybrid: interaction of β-catenin mutants with conductin; details: for Interaction With Conductin, share of wild type β-catenin interaction: yeast 2-hybrid, alanine mutants; for interaction with conductin: β-catenin mutation, in words
T4 construct: conductin for the amino acids Ala342–ARG465; expressed in transfected cells; host or cells: yeast (two-hybrid, Matchmaker, Clontech)
Procedure, shortened: as §1

E-cadherin = target: T5, E-cadherin (Mus musculus, UniProt P09803); assay: yeast 2-hybrid: interaction of β-catenin mutants with E-cadherin; details: alanine mutants
T5 construct: E-cadherin for the amino acids Gin773–Asp884 (cytoplasmatic domain); expressed in transfected cells; host or cells: yeast (two-hybrid, Matchmaker, Clontech)
Experimental: The mutagenesis of β-catenin in the armadillo repeats 3–8 was carried out by means of the “mutagenesis kit” of the company Clontech according to the producer's record and the mutants were checked by sequencing (FIG. 5). In all mutants the original amino acid was substituted by alanine. For analyzing the interactions the cDNA of human β-catenin (armadillo repeat 3 up to the C-terminal end of the protein) coding for the amino acids Leu218–Leu7 μl or its mutants was cloned into the fusion vector for the activation domain of Gal-4 (pGAD424, Clontech). The cDNA for the binding domains of the interaction partners was cloned into the Lex-A fusion vector BTM 116. To this end, the cDNA of LEF-1 for the amino acids 1–99, conductin for the amino acids Ala342–ARG465; of human APC for the amino acids His1012–Glu1215 (APC 15 amino acid repeats) and for the amino acids Ser1259Asp 1400 (APC 20 amino acid repeats) and E-cadherin for the amino acids Gin773–Asp884 (cytoplasmatic domain) were amplified with the respective primers PCR. The interaction of the Lex-A hybrids with β-catenin and its mutants was quantified by means of the β-galactosidase reporter activity in the yeast 2-hybrid system (report: “Matchmaker”. Clontech) (Tab. 2 and FIG. 6).

T5 sequence (P09803 773-884): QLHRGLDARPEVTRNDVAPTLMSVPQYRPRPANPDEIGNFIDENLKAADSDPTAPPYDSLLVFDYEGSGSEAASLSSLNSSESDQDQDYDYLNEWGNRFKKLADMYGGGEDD
T4 sequence (O88566 343-465 limits assumed): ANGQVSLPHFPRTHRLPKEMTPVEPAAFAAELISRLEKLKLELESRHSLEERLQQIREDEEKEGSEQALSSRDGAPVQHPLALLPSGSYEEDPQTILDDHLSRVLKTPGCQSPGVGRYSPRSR
T3 sequence (P27782 1-99): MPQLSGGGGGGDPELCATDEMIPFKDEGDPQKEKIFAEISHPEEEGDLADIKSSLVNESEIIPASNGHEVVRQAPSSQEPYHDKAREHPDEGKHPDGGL

Molecule | interaction with LEF-1/TCF-4 (LEF-1; β-catenin mutation, in words) | Interaction With APC-20, share of wild type β-catenin interaction [1] [%] | Interaction With APC-15, share of wild type β-catenin interaction [2] | Interaction With Conductin, share of wild type β-catenin interaction (conductin) | Interaction With E-Cadherin, share of wild type β-catenin interaction (E-cadherin) | Interaction With LEF-1, share of wild type β-catenin interaction (LEF-1) | interaction with APC 20aa ([1]; β-catenin mutation, in words) | interaction with conductin (conductin)
His 470: human β-catenin mutant, His 470 substituted by alanine (arm 8) (protein, left off: large carriers; small tags and cut ends) LHNLSHHREGLLAIFKSGGIPALVKMLGSPVDSVLFYAITTLHNLLLHQEGAKMAVRLAGGLQKMVALLNKTNVKFLAITTDCLQILAYGNQESKLIILASGGPQALVNIMRTYTYEKLLWTTSRVLKVLSVCSSNKPAIVEAGGMQALGLHLTDPSQRLVQNCLWTLRNLSDAATKQEGMEGLLGTLVQLLGSDDINVVTCAAGILSNLTCNNYKNKMMVCQVGGIEALVRTVLRAGDREDITEPAICALRALTSRHQEAEMAQNAVRLHYGLPVVVKLLHPPSHWPLIKATVGLIRNLALCPANHAPLREQGAIPRLVQLLVRAHQDTQRRTSMGGTQQQFVEGVRMEEIVEGCTGALHILARDVHNRIVIRGLNTIPLFVQLLYSPIENIQRVAAGVLCELAQDKEAAEAIEAEGATAPLTELLHSRNEGVATYAAAVLFRMSEDKPQDYKKRLSVELTSSLFRTEPMAWNETADLGLDIGAQGEPLGYRQDDPSYRSFHSGGYGQDALGMDPMMEHEMGGHHPGADYPVDGLPDLGHAQDLMDGLPPGDSNQLAWFDTDL | blocking the interaction; also recorded: no interaction with LEF-1/TCF-4 | 47 | 60% | — (Interactions marked by — correspond to 60–100% of the wild type interaction) | — (Interactions marked by — correspond to 60–100% of the wild type interaction) |  |  | 
Trp 383: human β-catenin mutant, Trp 383 substituted by alanine (arm 6) (protein, left off: large carriers; small tags and cut ends) LHNLSHHREGLLAIFKSGGIPALVKMLGSPVDSVLFYAITTLHNLLLHQEGAKMAVRLAGGLQKMVALLNKTNVKFLAITTDCLQILAYGNQESKLIILASGGPQALVNIMRTYTYEKLLWTTSRVLKVLSVCSSNKPAIVEAGGMQALGLHLTDPSQRLVQNCLATLRNLSDAATKQEGMEGLLGTLVQLLGSDDINVVTCAAGILSNLTCNNYKNKMMVCQVGGIEALVRTVLRAGDREDITEPAICALRHLTSRHQEAEMAQNAVRLHYGLPVVVKLLHPPSHWPLIKATVGLIRNLALCPANHAPLREQGAIPRLVQLLVRAHQDTQRRTSMGGTQQQFVEGVRMEEIVEGCTGALHILARDVHNRIVIRGLNTIPLFVQLLYSPIENIQRVAAGVLCELAQDKEAAEAIEAEGATAPLTELLHSRNEGVATYAAAVLFRMSEDKPQDYKKRLSVELTSSLFRTEPMAWNETADLGLDIGAQGEPLGYRQDDPSYRSFHSGGYGQDALGMDPMMEHEMGGHHPGADYPVDGLPDLGHAQDLMDGLPPGDSNQLAWFDTDL |  | 0 | 59% | — (Interactions marked by — correspond to 60–100% of the wild type interaction) | — (Interactions marked by — correspond to 60–100% of the wild type interaction) | — (Interactions marked by — correspond to 60–100% of the wild type interaction) | no interaction with APC 20aa | 
Trp 338: human β-catenin mutant, Trp 338 substituted by alanine (arm 5) (protein, left off: large carriers; small tags and cut ends) LHNLSHHREGLLAIFKSGGIPALVKMLGSPVDSVLFYAITTLHNLLLHQEGAKMAVRLAGGLQKMVALLNKTNVKFLAITTDCLQILAYGNQESKLIILASGGPQALVNIMRTYTYEKLLATTSRVLKVLSVCSSNKPAIVEAGGMQALGLHLTDPSQRLVQNCLWTLRNLSDAATKQEGMEGLLGTLVQLLGSDDINVVTCAAGILSNLTCNNYKNKMMVCQVGGIEALVRTVLRAGDREDITEPAICALRHLTSRHQEAEMAQNAVRLHYGLPVVVKLLHPPSHWPLIKATVGLIRNLALCPANHAPLREQGAIPRLVQLLVRAHQDTQRRTSMGGTQQQFVEGVRMEEIVEGCTGALHILARDVHNRIVIRGLNTIPLFVQLLYSPIENIQRVAAGVLCELAQDKEAAEAIEAEGATAPLTELLHSRNEGVATYAAAVLFRMSEDKPQDYKKRLSVELTSSLFRTEPMAWNETADLGLDIGAQGEPLGYRQDDPSYRSFHSGGYGQDALGMDPMMEHEMGGHHPGADYPVDGLPDLGHAQDLMDGLPPGDSNQLAWFDTDL |  | 55 | — (Interactions marked by — correspond to 60–100% of the wild type interaction) | 20% | — (Interactions marked by — correspond to 60–100% of the wild type interaction) | — (Interactions marked by — correspond to 60–100% of the wild type interaction) |  | no interaction with conductin
Phe 253: human β-catenin mutant, Phe 253 substituted by alanine (arm 3) (protein, left off: large carriers; small tags and cut ends) LHNLSHHREGLLAIFKSGGIPALVKMLGSPVDSVLAYAITTLHNLLLHQEGAKMAVRLAGGLQKMVALLNKTNVKFLAITTDCLQILAYGNQESKLIILASGGPQALVNIMRTYTYEKLLWTTSRVLKVLSVCSSNKPAIVEAGGMQALGLHLTDPSQRLVQNCLWTLRNLSDAATKQEGMEGLLGTLVQLLGSDDINVVTCAAGILSNLTCNNYKNKMMVCQVGGIEALVRTVLRAGDREDITEPAICALRHLTSRHQEAEMAQNAVRLHYGLPVVVKLLHPPSHWPLIKATVGLIRNLALCPANHAPLREQGAIPRLVQLLVRAHQDTQRRTSMGGTQQQFVEGVRMEEIVEGCTGALHILARDVHNRIVIRGLNTIPLFVQLLYSPIENIQRVAAGVLCELAQDKEAAEAIEAEGATAPLTELLHSRNEGVATYAAAVLFRMSEDKPQDYKKRLSVELTSSLFRTEPMAWNETADLGLDIGAQGEPLGYRQDDPSYRSFHSGGYGQDALGMDPMMEHEMGGHHPGADYPVDGLPDLGHAQDLMDGLPPGDSNQLAWFDTDL |  | 40 | — (Interactions marked by — correspond to 60–100% of the wild type interaction) | 17% | — (Interactions marked by — correspond to 60–100% of the wild type interaction) | — (Interactions marked by — correspond to 60–100% of the wild type interaction) |  | no interaction with conductin
